# T1: myostatin (Homo sapiens, UniProt O14793)
# T1 construct: To produce mature myostatin, the pooled promyostatin was enzymatically cleaved between the propeptide and mature myostatin C terminal; made in house; host or cells: E. coli K-12 strain 2596 (ATCC #202174)
# T1 sequence (O14793 267-375): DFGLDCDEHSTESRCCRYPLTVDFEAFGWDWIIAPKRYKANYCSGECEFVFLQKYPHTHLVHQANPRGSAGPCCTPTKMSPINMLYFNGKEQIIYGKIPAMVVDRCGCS
# Assays:
# myostatin [1] = target: T1, myostatin; assay: C2C12 pMARE-luc cell based myostatin activity assay; settings: Table VIII; affinity matured peptibodies; a range of values is given
# Text: A myostatin-responsive reporter cell line was generated by transfection of C2C12 myoblast cells (ATCC No: CRL-1772) with a pMARE-luc construct. The pMARE-luc construct was made by cloning twelve repeats of the CAGA sequence, representing the myostatin/activin response elements (Dennler et al. EMBO 17: 3091-3100 (1998)) into a pLuc-MCS reporter vector (Stratagene cat #219087) upstream of the TATA box. The myoblast C2C12 cells naturally express myostatin/activin receptors on its cell surface. When myostatin binds the cell receptors, the Smad pathway is activated, and phosphorylated Smad binds to the response element (Maciasi-Silva et al. Cell 87:1215 (1996)), resulting in the expression of the lucerase gene. Luciferase activity is then measured using a commercial luciferase reporter assay kit (cat #E4550, Promega, Madison, Wis.) according to manufacturer's protocol. A stable line of C2C12 cells that had been transfected with pMARE-luc (C2C12/pMARE clone #44) was used to measure myostatin activity according to the following procedure.
# Equal numbers of the reporter cells (C2C12/pMARE clone #44) were plated into 96 well cultures. A first round screening using two dilutions of peptibodies was performed with the myostatin concentration fixed at 4 nM. […] Myostatin activity was measured by determining the luciferase activity in the treated cultures. […]
# CD1 nu/nu mouse model = assay: In vivo anabolic activity in CD1 nu/nu mouse model; settings: CD1 nu/nu male mice; 1 and 3 mg/kg twice weekly for 35 days; vs 1× peptibody or huFc control; FIG. 5
# Text: The CD1 nu/nu mouse model (Charles River Laboratories, Massachusettes) was used to determine the in vivo efficacy of the peptibodies of the present invention which included the human Fc region (huFc). This model responded to the inhibitors of the present invention with a rapid anabolic response which was associated with increased dry muscle mass and an increase in myofibrillar proteins but was not associated with accumulation in body water content.
# A group of 10 8 week old CD1 nu/nu mice were treated twice weekly or once weekly with dosages of 1 mg/kg, 3 mg/kg and 10 mg/kg (subcutaneous injection). The control group of 10 8 week old CD1 nu/nu mice received a twice weekly (subcutaneous) injection of huFc (vehicle) at 10 mg/kg. The animals were weighed every other day and lean body mass determined by NMR on day 0 and day 13. The animals are then sacrificed at day 14 and the size of the gastrocnemius muscle determined.
# In another example, the 1× mTN8-19-32 peptibody was administered to CD1 nu/nu mice in a biweekly injection of 1 mg/kg, 3 mg/kg, 10 mg/kg, and 30 mg/kg compared with the huFc control (vehicle).
# CD1 nu/nu male mice (10 animals per group) were treated with twice weekly injections of 1 mg/kg and 3 mg/kg of 1× mTN8-19-7 and 2× mTN8-19-7 for 35 days, while the control group (10 animals) received twice weekly injections of huFc (3 mg/kg).
# C57B/6 mice = assay: Gripping strength in C57B/6 mice; format: in vivo, mouse; settings: 4 month old male C57B/6 mice; s.c. 2 injections per week, 5 mg/kg per week, 30 days; measured day 18 of recovery
# Protocol: Normal age-matched 4 month old male C57B/6 mice were treated for 30 days with 2 injections per week subcutaneous injections 5 mg/kg per week of 2× mTN8-19-33, 2× mTN8-19-7, and huFc vehicle control group (10 animals/group). The animals were allowed to recover without any further injections. Gripping strength was measured on day 18 of the recovery period. Gripping strength was measured using a Columbia Instruments meter, model 1027 dsm (Columbus, Ohio).
# [2] = In vivo pharmacokinetics in CD1 nu/nu mice; parameters: species or system mouse; settings: 10 mg/kg and 5 mg/kg, peptibodies without the LE sequences
# Protocol: In vivo pharmacokinetics experiments were performed using representative peptibodies without the LE sequences. 10 mg/kg and 5 mg/kg dosages were administered to CD1 nu/nu mice and the following parameters determined. Cmax (ug/mL), area under the curve (AUC) (ug-hr/mL), and half-life (hr).
# myostatin [3] = target: T1, myostatin; assay: BIAcore direct binding affinity assay on immobilized myostatin; settings: Table III
# Protocol: An affinity analysis of each candidate myostatin peptibody was performed on a BIAcore® 3000 (Biacore, Inc., Piscataway, N.J.), apparatus using sensor chip CM5, and 0.005 percent P20 surfactant (Biacore, Inc.) as running buffer.
# Direct binding assays were used to screen and rank the peptibodies in order of their ability to bind to immobilized myostatin. Binding assays were carried by injection of two concentrations (40 and 400 nM) of each candidate myostatin-binding peptibody to the immobilized myostatin surface at a flow rate of 50 μl/min for 3 minutes. After a dissociation time of 3 minutes, the surface was regenerated. Binding curves were compared qualitatively for binding signal intensity, as well as for dissociation rates. Peptibody binding kinetic parameters including ka (association rate constant), kd (dissociation rate constant) and KD (dissociation equilibrium constant) were determined using the BTA evaluation 3.1 computer program (Biacore, Inc.). The lower the dissociation equilibrium constants (expressed in nM), the greater the affinity of the peptibody for myostatin.
Molecule,IC50 (myostatin [1]),body weight gain (CD1 nu/nu mouse model),lean carcass weight at necropsy (CD1 nu/nu mouse model),increase in gripping strength compared with control-treated mice (C57B/6 mice),half-life [2],Kd (myostatin [3])
"2xmTN8-19-7(-LE): 2x mTN8-19-7 peptibody with the LE sequences deleted (SEQ ID NO: 617) (protein, Peptibody) GGGGGAQLADHGQCIRWPWMCPPEGWEGSGSATGGSGGGASSGSGSATGLADHGQCIRWPWMCPPEGWE",1.08 to 1.22 nM,,,,,
"2xmTN8-19-7: 2x peptibody, two mTN8-19-7 peptides in tandem on Fc (SEQ ID NO: 615) (protein, Peptibody) GGGGGAQLADHGQCIRWPWMCPPEGWELEGSGSATGGSGSTASSGSGSATGLADHGQCIRWPWMCPPEGWELE",0.857 to 2.65 nM,greater body weight gain,greater,15%,about 106 hours,
"ActRIIB/Fc: soluble receptor fusion protein actRIIB/Fc (R&D Systems) (protein, left off: a dimerising Fc or GST) SGRGEAETRECIYYNANWELERTNQSGLERCEGEQDKRLHCYASWRNSSGTIELVKKGCWLDDFNCYDRQECVATEENPQVYFCCCEGNFCNERFTHLPEAGGPEVTYEPPPTAPT",,,,,,~7 nM
